Legend:
Assay in all cases: Kinase Profiling Assay
Format in all cases: biochemical
Details in all cases: for % activity: 100 μM
Met(Y1248C)(h) = Met(Y1248C)(h) (Homo sapiens, UniProt P08581, Y1230C)
PASK(h) = PASK(h) (Homo sapiens, UniProt Q96RG2)
ZIPK(h) = ZIPK(h) (Homo sapiens, UniProt O43293)
GCK(h) = molecular target: T1, GCK(h) (Homo sapiens, UniProt Q12851)
T1 sequence (Q12851 1-820): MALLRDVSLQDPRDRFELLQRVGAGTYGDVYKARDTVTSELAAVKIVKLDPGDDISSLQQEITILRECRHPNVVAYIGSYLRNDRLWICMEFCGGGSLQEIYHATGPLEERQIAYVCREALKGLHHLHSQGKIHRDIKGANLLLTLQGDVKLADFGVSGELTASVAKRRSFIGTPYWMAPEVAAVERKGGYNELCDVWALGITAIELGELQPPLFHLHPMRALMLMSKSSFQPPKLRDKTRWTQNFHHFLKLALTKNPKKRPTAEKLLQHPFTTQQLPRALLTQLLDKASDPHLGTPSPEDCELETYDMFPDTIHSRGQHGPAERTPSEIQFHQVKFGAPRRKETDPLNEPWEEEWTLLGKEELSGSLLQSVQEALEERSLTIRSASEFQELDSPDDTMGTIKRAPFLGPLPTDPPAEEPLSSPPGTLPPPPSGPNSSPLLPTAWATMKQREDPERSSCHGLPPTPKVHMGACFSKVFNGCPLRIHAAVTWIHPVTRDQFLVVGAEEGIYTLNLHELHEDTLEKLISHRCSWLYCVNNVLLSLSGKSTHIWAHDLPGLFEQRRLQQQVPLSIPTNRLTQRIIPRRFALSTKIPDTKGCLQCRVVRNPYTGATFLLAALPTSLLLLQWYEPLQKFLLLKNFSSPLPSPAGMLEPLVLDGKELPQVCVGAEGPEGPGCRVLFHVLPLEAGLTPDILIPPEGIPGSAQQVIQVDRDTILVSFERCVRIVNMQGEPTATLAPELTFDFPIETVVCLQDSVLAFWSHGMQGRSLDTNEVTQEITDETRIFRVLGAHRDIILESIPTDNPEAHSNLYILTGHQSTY

JAK2(h) = JAK2(h) (Homo sapiens, UniProt O60674)
JAK2(h), sequence (O60674 whole entry): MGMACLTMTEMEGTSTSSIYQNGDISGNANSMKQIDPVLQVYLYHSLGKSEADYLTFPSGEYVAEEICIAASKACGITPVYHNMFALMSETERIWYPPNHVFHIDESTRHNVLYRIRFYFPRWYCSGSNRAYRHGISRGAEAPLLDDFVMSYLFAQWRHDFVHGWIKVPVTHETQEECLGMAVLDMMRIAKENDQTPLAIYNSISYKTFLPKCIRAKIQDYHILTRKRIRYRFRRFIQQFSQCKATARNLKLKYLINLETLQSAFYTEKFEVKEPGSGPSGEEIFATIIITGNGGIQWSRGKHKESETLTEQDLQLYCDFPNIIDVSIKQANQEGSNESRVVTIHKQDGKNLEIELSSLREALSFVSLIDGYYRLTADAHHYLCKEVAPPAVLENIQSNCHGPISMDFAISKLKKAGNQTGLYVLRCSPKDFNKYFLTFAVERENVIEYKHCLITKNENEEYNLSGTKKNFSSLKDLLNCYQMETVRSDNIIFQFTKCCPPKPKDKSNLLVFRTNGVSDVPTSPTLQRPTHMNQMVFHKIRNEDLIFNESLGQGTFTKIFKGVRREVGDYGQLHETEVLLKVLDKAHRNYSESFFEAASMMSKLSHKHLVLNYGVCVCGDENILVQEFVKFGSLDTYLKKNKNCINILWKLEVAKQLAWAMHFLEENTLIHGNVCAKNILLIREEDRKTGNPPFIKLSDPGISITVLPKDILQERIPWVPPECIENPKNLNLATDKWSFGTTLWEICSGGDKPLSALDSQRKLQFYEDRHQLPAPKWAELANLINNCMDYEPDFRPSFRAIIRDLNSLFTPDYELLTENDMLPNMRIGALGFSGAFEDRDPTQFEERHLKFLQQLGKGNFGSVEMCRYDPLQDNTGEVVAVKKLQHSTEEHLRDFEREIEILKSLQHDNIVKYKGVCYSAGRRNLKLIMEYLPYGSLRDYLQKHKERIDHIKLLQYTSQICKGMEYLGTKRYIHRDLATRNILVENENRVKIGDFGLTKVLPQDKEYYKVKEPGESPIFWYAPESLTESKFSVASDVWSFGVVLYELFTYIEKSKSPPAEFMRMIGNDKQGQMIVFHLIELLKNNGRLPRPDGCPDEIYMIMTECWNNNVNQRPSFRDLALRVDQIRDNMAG

PKCτ(h) = molecular target: T2, PKCτ(h) (Homo sapiens, UniProt P41743)
T2 sequence (P41743 1-596): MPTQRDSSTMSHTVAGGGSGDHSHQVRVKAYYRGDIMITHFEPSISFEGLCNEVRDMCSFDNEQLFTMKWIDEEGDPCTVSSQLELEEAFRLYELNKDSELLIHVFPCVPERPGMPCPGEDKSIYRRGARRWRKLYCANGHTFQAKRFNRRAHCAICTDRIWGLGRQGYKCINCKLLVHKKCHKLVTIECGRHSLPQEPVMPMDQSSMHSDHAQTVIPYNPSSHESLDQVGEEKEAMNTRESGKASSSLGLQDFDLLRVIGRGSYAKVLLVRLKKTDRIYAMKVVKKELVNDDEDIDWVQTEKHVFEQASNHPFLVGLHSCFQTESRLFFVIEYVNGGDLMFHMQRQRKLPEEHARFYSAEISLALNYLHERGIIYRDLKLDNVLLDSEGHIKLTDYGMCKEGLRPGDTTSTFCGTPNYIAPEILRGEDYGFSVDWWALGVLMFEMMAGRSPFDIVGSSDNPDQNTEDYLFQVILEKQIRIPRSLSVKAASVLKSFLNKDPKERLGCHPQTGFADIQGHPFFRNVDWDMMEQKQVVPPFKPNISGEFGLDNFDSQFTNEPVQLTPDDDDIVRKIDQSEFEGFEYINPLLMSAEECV

Itk(h) = molecular target: T3, Itk(h) (Homo sapiens, UniProt Q08881)
T3 sequence (Q08881 1-620): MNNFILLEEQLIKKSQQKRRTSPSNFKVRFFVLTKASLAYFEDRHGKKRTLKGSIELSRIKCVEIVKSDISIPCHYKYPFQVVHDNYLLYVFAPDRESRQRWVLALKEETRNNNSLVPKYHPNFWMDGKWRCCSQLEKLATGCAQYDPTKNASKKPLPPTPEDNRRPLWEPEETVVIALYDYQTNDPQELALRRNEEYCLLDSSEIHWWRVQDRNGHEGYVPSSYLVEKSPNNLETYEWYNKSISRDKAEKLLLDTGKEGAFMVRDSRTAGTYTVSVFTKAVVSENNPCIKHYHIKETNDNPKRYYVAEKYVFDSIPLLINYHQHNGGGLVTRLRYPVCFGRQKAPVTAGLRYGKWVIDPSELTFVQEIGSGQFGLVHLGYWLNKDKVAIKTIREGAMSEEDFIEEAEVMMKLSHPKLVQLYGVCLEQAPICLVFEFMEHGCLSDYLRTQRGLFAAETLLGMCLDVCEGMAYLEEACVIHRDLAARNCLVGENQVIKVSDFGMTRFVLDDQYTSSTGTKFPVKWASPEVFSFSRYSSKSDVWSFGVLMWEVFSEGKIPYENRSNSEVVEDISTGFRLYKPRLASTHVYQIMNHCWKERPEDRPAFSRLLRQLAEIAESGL

Met(Y1248D)(h) = Met(Y1248D)(h) (Homo sapiens, UniProt P08581, Y1230D)
Ab1(T315I)(h) = Ab1(T315I)(h) (Homo sapiens, UniProt P00519, T315I)

ZIPK(h), sequence (O43293 whole entry): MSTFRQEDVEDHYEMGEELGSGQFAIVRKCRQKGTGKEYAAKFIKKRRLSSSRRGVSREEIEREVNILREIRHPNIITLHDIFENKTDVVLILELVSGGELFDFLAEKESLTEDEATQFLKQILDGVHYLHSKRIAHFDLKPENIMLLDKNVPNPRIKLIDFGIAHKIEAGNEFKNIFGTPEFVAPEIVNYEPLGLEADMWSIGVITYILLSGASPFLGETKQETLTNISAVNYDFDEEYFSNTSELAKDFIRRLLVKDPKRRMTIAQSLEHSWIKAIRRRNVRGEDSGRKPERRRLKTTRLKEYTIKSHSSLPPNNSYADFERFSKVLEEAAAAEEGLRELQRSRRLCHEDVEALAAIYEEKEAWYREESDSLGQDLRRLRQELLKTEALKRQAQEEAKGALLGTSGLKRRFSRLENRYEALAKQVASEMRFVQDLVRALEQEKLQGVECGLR
PASK(h), sequence (Q96RG2 whole entry): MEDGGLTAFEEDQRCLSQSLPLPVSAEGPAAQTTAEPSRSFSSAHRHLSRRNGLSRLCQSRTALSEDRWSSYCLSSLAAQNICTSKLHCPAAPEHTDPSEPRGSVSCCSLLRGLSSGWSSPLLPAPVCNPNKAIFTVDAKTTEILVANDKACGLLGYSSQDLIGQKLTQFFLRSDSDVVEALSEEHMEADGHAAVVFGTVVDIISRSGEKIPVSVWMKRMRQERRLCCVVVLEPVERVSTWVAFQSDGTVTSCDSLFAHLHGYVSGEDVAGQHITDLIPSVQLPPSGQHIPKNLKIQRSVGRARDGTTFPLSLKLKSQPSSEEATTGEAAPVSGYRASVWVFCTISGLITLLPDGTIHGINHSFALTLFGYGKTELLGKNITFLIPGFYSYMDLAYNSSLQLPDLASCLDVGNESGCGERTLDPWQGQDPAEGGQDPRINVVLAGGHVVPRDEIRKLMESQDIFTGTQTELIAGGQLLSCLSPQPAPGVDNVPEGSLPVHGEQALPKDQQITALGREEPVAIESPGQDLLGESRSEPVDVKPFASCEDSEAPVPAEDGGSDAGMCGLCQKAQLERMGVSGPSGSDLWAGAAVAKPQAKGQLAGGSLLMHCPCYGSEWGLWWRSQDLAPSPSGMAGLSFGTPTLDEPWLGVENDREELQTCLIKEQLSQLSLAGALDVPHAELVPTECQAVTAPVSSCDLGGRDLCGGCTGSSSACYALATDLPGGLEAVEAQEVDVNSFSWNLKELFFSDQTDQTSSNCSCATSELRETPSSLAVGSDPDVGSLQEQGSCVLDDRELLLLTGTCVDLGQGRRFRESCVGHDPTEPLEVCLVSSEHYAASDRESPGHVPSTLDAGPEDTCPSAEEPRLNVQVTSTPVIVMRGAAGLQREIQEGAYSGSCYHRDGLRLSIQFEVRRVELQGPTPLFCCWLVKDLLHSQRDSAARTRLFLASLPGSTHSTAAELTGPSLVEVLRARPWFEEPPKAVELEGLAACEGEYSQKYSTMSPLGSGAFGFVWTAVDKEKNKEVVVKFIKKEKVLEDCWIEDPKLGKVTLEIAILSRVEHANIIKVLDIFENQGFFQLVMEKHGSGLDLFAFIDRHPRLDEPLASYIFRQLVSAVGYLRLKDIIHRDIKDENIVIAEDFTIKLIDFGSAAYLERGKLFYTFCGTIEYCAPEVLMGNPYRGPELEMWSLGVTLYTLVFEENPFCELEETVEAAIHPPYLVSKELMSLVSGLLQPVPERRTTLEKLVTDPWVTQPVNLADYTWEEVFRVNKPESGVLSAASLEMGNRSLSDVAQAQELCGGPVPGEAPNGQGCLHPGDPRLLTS

For H-YARAAARQARAKALARQLGVAA-OH [MMI-0100], the activity at 100 µM (Met(Y1248C)(h)) was 77%, the activity at 100 µM (PASK(h)) was 81% and the activity at 100 µM (ZIPK(h)) was 80%. It also gave an activity at 100 µM (GCK(h)) of 98%, an activity at 100 µM (JAK2(h)) of 89% and an activity at 100 µM (PKCτ(h)) of 110%. It also gave an activity at 100 µM (Itk(h)) of 99%, an activity at 100 µM (Met(Y1248D)(h)) of 87% and an activity at 100 µM (Ab1(T315I)(h)) of 98%.

“HRRIKAWLKKIKALARQLGVAA (Mammalian) [MMI-0500]” was tested, and the “% activity” value (Met(Y1248C)(h)) was 73%, the “% activity” value (PASK(h)) was 9% and the “% activity” value (ZIPK(h)) was 1%. For the same substance, the “% activity” value (GCK(h)) was 30%, the “% activity” value (JAK2(h)) was 49% and the “% activity” value (PKCτ(h)) was 7%. For the same substance, the “% activity” value (Itk(h)) was 7%, the “% activity” value (Met(Y1248D)(h)) was 218% and the “% activity” value (Ab1(T315I)(h)) was 16%.

“YARAAARQARAKALNRQLGVA (Mammalian) [MMI-0200]” was tested, and the “% activity” value (Met(Y1248C)(h)) was 141%, the “% activity” value (PASK(h)) was 60% and the “% activity” value (ZIPK(h)) was 67%. For the same substance, the “% activity” value (GCK(h)) was 99%, the “% activity” value (JAK2(h)) was 131% and the “% activity” value (PKCτ(h)) was 97%. The “% activity” value (Itk(h)) was 98%, the “% activity” value (Met(Y1248D)(h)) was 118% and the “% activity” value (Ab1(T315I)(h)) was 108%.
